Assay results: PMC11197762 (Fundamental Research, 2022)

Biological target: GST-p53, full-length, wild-type (human, UniProt P04637 1-393)
Assay: pull-down

Sequence of GST-p53, full-length, wild-type (P04637 whole entry): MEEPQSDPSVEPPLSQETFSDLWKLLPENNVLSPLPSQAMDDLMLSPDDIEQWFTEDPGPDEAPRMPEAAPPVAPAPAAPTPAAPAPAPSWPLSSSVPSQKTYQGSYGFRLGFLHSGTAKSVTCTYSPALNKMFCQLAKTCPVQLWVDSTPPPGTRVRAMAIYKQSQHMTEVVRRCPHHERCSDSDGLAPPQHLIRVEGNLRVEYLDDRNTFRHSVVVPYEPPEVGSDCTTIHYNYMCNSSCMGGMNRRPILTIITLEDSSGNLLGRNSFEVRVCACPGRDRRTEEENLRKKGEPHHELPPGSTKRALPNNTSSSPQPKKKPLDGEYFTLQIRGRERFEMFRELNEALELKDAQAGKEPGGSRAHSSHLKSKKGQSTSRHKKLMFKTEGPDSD

B1: BRD4 basic residue-enriched interaction domain (BID, aa 524-579), purified (domain or fragment)
chain: QLAALSQPQQNKPKKKEKDKKEKKKEKHKRKEEVEENKKSKAKEPPPKKTKKNNSS
- binding result: binds
